Test results from article PMC5657598.

Molecular target: Get1/2 heterodimer, cytosolically labeled (Get1-S77C-Cy5 and Get2-S28C-Cy3) (yeast) (UniProt P53192)
Assay: FRET or BRET

Kd: < 1 nM
stoichiometry N (Get3 homodimer per Get1/2 heterodimer): 1
B1: Get3-D57N (enzyme)
chain: MDLTVEPNLHSLITSTTHKWIFVGGKGGVGKTTSSCSIAIQMALSQPNKQFLLISTNPAHNLSDAFGEKFGKDARKVTGMNNLSCMEIDPSAALKDMNDMAVSRANNNGSDGQGDDLGSLLQGGALADLTGSIPGIDEALSFMEVMKHIKRQEQGEGETFDTVIFDTAPTGHTLRFLQLPNTLSKLLEKFGEITNKLGPMLNSFMGAGNVDISGKLNELKANVETIRQQFTDPDLTTFVCVCISEFLSLYETERLIQELISYDMDVNSIIVNQLLFAENDQEHNCKRCQARWKMQKKYLDQIDELYEDFHVVKMPLCAGEIRGLNNLTKFSQFLNKEYNPITDGKVIYELEDKE
